Results: the supplement of paper PMC10724198
± gives the standard deviation of the averaged measurements.

Test system: Saccharomyces cerevisiae
Assay: protein stability index of tFT-peptide fusion in wild type (PSI (0-1 scale)); higher = more stable (slower turnover)
Settings: genetic background: wild type
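Throughout, for protein stability index of tFT-peptide fusion (C-terminal peptide): PSI is a weighted mean of sequencing reads over stability bins, variants kept only with over 10 reads, mCherry proximal and sfGFP distal, peptide attached via GGGS linker.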
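Throughout, for protein stability index of tFT-peptide fusion in deletion strain of DOA10: PSI per variant is the weighted mean of its sequencing read distribution over the sorted stability bins, counting only variants with over 10 reads summed across bins.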
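Throughout, for protein stability index of tFT-peptide fusion in wild type: PSI derived as read-weighted mean over the 8 sorting bins, only variants exceeding 10 total reads kept, mCherry placed adjacent to the peptide and sfGFP distal.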

Sequence	protein stability index
GLYMCSVGCWFR	0.264
RSLRVLLPLYCR	0.266
RSLRVLLPLYFC	0.0775
RSLRVLLPLYFRR	0.315
RSLRVLLPLYFRW	0.215
RSLRVLLPLYFV	0.25
RSLRVLLPLYFW	0.339
RSLRVLLPLYYR	0.375
RSLRVLMPLYFR	0.254
RSLRVWLPLYFR	0.166
RSTRVLLPLYFR	0.292
RVTHLDAIYFRI	0.471
RVTPLDAIYFRI	0.547
RVTRLAAIYFRI	0.173
RVTRLDAAYFRI	0.653
RVTRLDAIDFRI	0.668
RVTRLDAITFRI	0.678
RVTRLDAIYFEI	0.69

Sequence	protein stability index
RVTRLDAIYFII	0.0744
RVTRLDAIYFRG	0.664
RVTRLDAIYFRH	0.604
RVTRLDAIYFRIF	0.0593
RVTRLDAIYFRIQ	0.218
RVTRLDAIYFRK	0.673
RVTRLDAIYFRS	0.641
RVTRLDAIYFRT	0.546
RVTRLDAIYFYI	0.425
RVTRLDAIYRRI	0.684
RVTRLSAIYFRI	0.22
RVTRLVAIYFRI	0.19
RVTRLWAIYFRI	0.167
RVTRRDAIYFRI	0.485
RVTVLDAIYFRI	0.516
RWTRLDAIYFRI	0.337
SLVSLPILLFFR	0.0746

Test system: Saccharomyces cerevisiae
Assay: protein stability index of tFT-peptide fusion (C-terminal peptide) (PSI (0-1 scale)); higher = more stable (slower turnover)
Settings: genetic background: wild type; temperature: 30 C

Sequence	protein stability index
GLYMCSVGCWFR	0.408 ± 0.085

Test system: Saccharomyces cerevisiae
Assay: protein stability index of tFT-peptide fusion in deletion strain of DOA10 (PSI (0-1 scale)); higher = more stable (slower turnover)
Settings: not given
Method: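 MPS profiling in S. cerevisiae of two library types built from selected 12-aa C-degron peptides (IN1, IN2, LN1, LN3, VN2, R1-R5, W1-W3, Atg1 and Rpa12 C-termini): saturation mutagenesis libraries and C-terminal +1 capping libraries (13 aa). Each peptide is fused to the C-terminus of a sfGFP-mCherry timer, after a GGGS linker. Cells are FACS-sorted into 8 mCherry/sfGFP bins and sequenced. PSI runs from 0 (unstable) to 1 (stable), measured once in wild type and in the das1Δ or doa10Δ background.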

Sequence	protein stability index
GLYMCSVGCWFR	0.629
RSLRVLLPLYCR	0.457
RSLRVLLPLYFC	0.175
RSLRVLLPLYFRR	0.675
RSLRVLLPLYFRW	0.677
RSLRVLLPLYFV	0.428
RSLRVLLPLYFW	0.589
RSLRVLLPLYYR	0.657
RSLRVLMPLYFR	0.697
RSLRVWLPLYFR	0.693
RSTRVLLPLYFR	0.684
RVTHLDAIYFRI	0.645
RVTPLDAIYFRI	0.675
RVTRLAAIYFRI	0.38
RVTRLDAAYFRI	0.704
RVTRLDAIDFRI	0.746
RVTRLDAITFRI	0.72
RVTRLDAIYFEI	0.725

Sequence	protein stability index
RVTRLDAIYFII	0.111
RVTRLDAIYFRG	0.701
RVTRLDAIYFRH	0.716
RVTRLDAIYFRIF	0.0962
RVTRLDAIYFRIQ	0.256
RVTRLDAIYFRK	0.711
RVTRLDAIYFRS	0.72
RVTRLDAIYFRT	0.703
RVTRLDAIYFYI	0.449
RVTRLDAIYRRI	0.721
RVTRLSAIYFRI	0.458
RVTRLVAIYFRI	0.394
RVTRLWAIYFRI	0.377
RVTRRDAIYFRI	0.673
RVTVLDAIYFRI	0.651
RWTRLDAIYFRI	0.528
SLVSLPILLFFR	0.619

Test system: Saccharomyces cerevisiae
Assay: protein stability index of tFT-peptide fusion (C-terminal peptide) (PSI (0-1 scale)); higher = more stable (slower turnover)
Settings: genetic background: cdc34-1; temperature: 37 C
Method: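 MPS profiling in S. cerevisiae of the tFT-X12 degron library: putative degron peptides plus stable controls, 12 aa, fused to the C-terminus of a sfGFP-mCherry timer. Cells are FACS-sorted into 8 mCherry/sfGFP bins and deep-sequenced. PSI runs from 0 (unstable) to 1 (stable). Backgrounds are wild type, das1Δ and doa10Δ at 30 °C, and wild type, das1Δ, cdc34-1 and cdc53-1 at 37 °C; 2-3 technical replicates each.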

Sequence	protein stability index
GLYMCSVGCWFR	0.104 ± 0.0033

Same assay, conditions: genetic background: cdc53-1; temperature: 37 C

Sequence	protein stability index
GLYMCSVGCWFR	0.0717 ± 0.0099

Same assay, conditions: genetic background: das1 deletion; temperature: 30 C

Sequence	protein stability index
GLYMCSVGCWFR	0.223 ± 0.033

Same assay, conditions: genetic background: das1 deletion; temperature: 37 C

Sequence	protein stability index
GLYMCSVGCWFR	0.2809 ± 0.001

Same assay, conditions: genetic background: doa10 deletion; temperature: 30 C

Sequence	protein stability index
GLYMCSVGCWFR	0.586 ± 0.011

Same assay, conditions: genetic background: wild type; temperature: 30 C

Sequence	protein stability index
GLYMCSVGCWFR	0.231 ± 0.018

Same assay, conditions: genetic background: wild type; temperature: 37 C

Sequence	protein stability index
GLYMCSVGCWFR	0.252 ± 0.0062
